Experimental data reported in the RNAGym collection of RNA variant scans (doi:10.1073/pnas.2313332121).

B1: TPR t1 (parent)
chain: GACCAAUCUGCCCUCAGAGCUCGAGAACAUCUUCGGAUGCAGAGGAGGCAGGCUUCGGUGGCGCGAUAGCGCCAACGUCCUCAACCUCCAAUGCAUCCCACCACAUGAUGAUGCCUGAAGAGCCUUGGUUUUUUG

Variants of: B1
Experiment: polymerase ribozyme fitness, log enrichment relative to wild type (log ratio); higher = more active; in vitro selection for triplet polymerase activity
Summary of the method: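 Mutant libraries for each subunit of a heterodimeric triplet polymerase ribozyme were made by PCR and then transcribed. Each library underwent one round of in vitro selection in triplicate: annealing with a biotinylated primer, the partner subunit and triplets, frozen incubation at −7 °C, gel excision of extended constructs, streptavidin-bead capture and RT-PCR. Input and output libraries were Illumina-sequenced, and only genotypes with ≥10 input reads and ≥1 read per output were kept. Fitness is the logarithm, base 2, of genotype enrichment over wild-type enrichment, computed from inverse-variance-weighted replicate averages.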

Compared with C28U U59C G61A C123U, A2G A43G is higher in “polymerase ribozyme fitness (log ratio)” value: -6.95 for the first, -2.05 for the second.

Going from C12G A27C to C8U U59G, the “polymerase ribozyme fitness (log ratio)” value rises from -2.38 to 0.21.

Going from G10U G39C A46C U116G to G57A C94U, the “polymerase ribozyme fitness (log ratio)” value rises from -3.17 to -2.53.

Going from G44A A50U G60U U132C to C88A C94U, the “polymerase ribozyme fitness (log ratio)” value rises from -2.38 to -0.581.

Compared with C40U C56U A74U U78C C89G, C12U C73U U81G C82G C123A is higher in “polymerase ribozyme fitness (log ratio)” value: -2.81 for the first, 0.809 for the second.

Compared with C12G G45U C72A G127A, C76A A95U C115U is lower in “polymerase ribozyme fitness (log ratio)” value: -2.17 for the first, -4.9 for the second.

First: C8A U21G
Second: C12U U38G C62U C76U C79A
The “polymerase ribozyme fitness (log ratio)” value of the first is higher: -1.24 for the first, -1.79 for the second.

Going from U7G A41G C53A G61U C79U A90U A111C to C8A G36U G69A C88A C115U U131G, the “polymerase ribozyme fitness (log ratio)” value falls from -3.04 to -6.31.

First: U55G U116G
Second: C12A A26U A41C C82A A95G C101A G120A G127A
The “polymerase ribozyme fitness (log ratio)” value of the first is higher: -2.12 for the first, -5.86 for the second.

Going from U38A C40A G93U to C11G C49A A74G A75U G77U, the “polymerase ribozyme fitness (log ratio)” value rises from -0.915 to -0.693.

Compared with G51A C72U C82U A83G C94U U126A, C12U G71A A111C C115A U131G U133A is higher in “polymerase ribozyme fitness (log ratio)” value: -2.93 for the first, -0.622 for the second.

First: A26U C53U C72U U116G
Second: C64U U112G C124G G135A
The “polymerase ribozyme fitness (log ratio)” value of the first is lower: -6.07 for the first, 1.56 for the second.

Going from G63A C115U to A6G A111U, the “polymerase ribozyme fitness (log ratio)” value falls from -1.45 to -2.51.

Compared with A46U C72G C114U, G45C C73U is higher in “polymerase ribozyme fitness (log ratio)” value: -4.52 for the first, -0.881 for the second.

Going from C12A C40U U87G to G52A U78A, the “polymerase ribozyme fitness (log ratio)” value rises from -1.56 to -0.123.

First: C64U C98U
Second: A27G
The “polymerase ribozyme fitness (log ratio)” value of the first is higher: -0.89 for the first, -1.52 for the second.

Going from A37C C79A C94U to C22G C34G C102U C123A, the “polymerase ribozyme fitness (log ratio)” value falls from -2.07 to -4.03.

First: U7A C70U G77U U92C G117C
Second: C22U C72G C82A
The “polymerase ribozyme fitness (log ratio)” value of the first is lower: -5.47 for the first, -5 for the second.

Going from G60C A95G to G48C A50G C102A, the “polymerase ribozyme fitness (log ratio)” value falls from 0.473 to -3.21.

Compared with A6G U7G A18C G48U C53A G63A C115A U133A, A2U G35U is lower in “polymerase ribozyme fitness (log ratio)” value: -1.29 for the first, -6.73 for the second.

Compared with C34A C89A, G45C U129A is higher in “polymerase ribozyme fitness (log ratio)” value: -5.68 for the first, -2.61 for the second.

Compared with G10C C15U C53U C123A, A16G G42U C49A C56U G61A U96G U109G U134A is lower in “polymerase ribozyme fitness (log ratio)” value: 0.897 for the first, -5.05 for the second.

Compared with A26G C73A, C12G G39U G61U is higher in “polymerase ribozyme fitness (log ratio)” value: -1.78 for the first, 0.0718 for the second.

Going from G61A U78C A95C C123A to G23U A24C C31G C72U A83C A90U G93A G107U U109A, the “polymerase ribozyme fitness (log ratio)” value falls from 0.138 to -6.51.

First: C13U G48U
Second: U106A U112G G117C
The “polymerase ribozyme fitness (log ratio)” value of the first is higher: -1.37 for the first, -5.9 for the second.

Going from C28U G71A G77A C114A to A41U A43G C94U, the “polymerase ribozyme fitness (log ratio)” value rises from -6.98 to -3.17.

Compared with U32A A43C G63C, A111G G122U U129C is higher in “polymerase ribozyme fitness (log ratio)” value: -6.22 for the first, -5.05 for the second.

First: G42U C72U
Second: C56U G93A G110C
The “polymerase ribozyme fitness (log ratio)” value of the first is higher: -1.64 for the first, -5.11 for the second.

First: A6C C22A U87C G113C
Second: G60A C89A
The “polymerase ribozyme fitness (log ratio)” value of the first is lower: -5.35 for the first, -1.99 for the second.

Compared with G57U C72U C102A, G10A A37G G61C C85G C86A G113A C124G U130A is lower in “polymerase ribozyme fitness (log ratio)” value: -2.25 for the first, -5.79 for the second.

Going from C22G G63C to C40U A50G, the “polymerase ribozyme fitness (log ratio)” value rises from -4.13 to -0.548.

Going from G19U C20U C72A U131A to A46C C114U, the “polymerase ribozyme fitness (log ratio)” value rises from -3.4 to -2.43.

Going from C53G C62U A119U to C89U C123U, the “polymerase ribozyme fitness (log ratio)” value rises from -0.561 to 0.813.

First: C56G U106A
Second: C12A G128C
The “polymerase ribozyme fitness (log ratio)” value of the first is higher: -0.921 for the first, -2.18 for the second.

First: C34A C72G G107U U109G A121G
Second: A41U C53G G63C C72U G77A
The “polymerase ribozyme fitness (log ratio)” value of the first is lower: -5.86 for the first, -3.7 for the second.

Compared with G44A A68G U112A, A2G G57A C104A is lower in “polymerase ribozyme fitness (log ratio)” value: -3.21 for the first, -3.56 for the second.

First: G47U G51A A121G G128U
Second: C12U A50U U59G A119U
The “polymerase ribozyme fitness (log ratio)” value of the first is lower: -3.97 for the first, -0.98 for the second.

First: G63C
Second: G45A G61U
The “polymerase ribozyme fitness (log ratio)” value of the first is lower: -0.722 for the first, -0.292 for the second.

First: G69U G93A
Second: C28A C56U
The “polymerase ribozyme fitness (log ratio)” value of the first is higher: -0.201 for the first, -2.94 for the second.

Going from U32C G60A C97A C124U U131A to G63A A121C G135A, the “polymerase ribozyme fitness (log ratio)” value rises from -4.71 to 0.83.

Compared with G71A U78A, C40U G48C C82A is lower in “polymerase ribozyme fitness (log ratio)” value: -0.645 for the first, -1.94 for the second.

Compared with C13U A41G A43C U87C G113A G122U, G69A C88G C102U is lower in “polymerase ribozyme fitness (log ratio)” value: -1.25 for the first, -6.62 for the second.
